Laboratory results published in publication PMC6136799, “The Npa1p complex chaperones the assembly of the earliest eukaryotic large ribosomal subunit precursor” (PLoS Genetics, 2018).

Tests used:
GST-Npa2p = target: T1, GST-Npa2p (S. cerevisiae, UniProt P47108 1-1174); assay: pull-down; 2 μg GST-tagged protein on glutathione magnetic beads, 2 μg His-Dbp6p in 200 μl IP buffer (50 mM Tris-HCl pH 8, 150 mM potassium chloride, 5 mM magnesium chloride, 0.2% Nonidet P-40), 1 h at 16°C; Western with anti-His; also after RNase A treatment; conditions: both partners purified
T1 construct: Npa2p, S. cerevisiae; NPA2 ORF inserted into XhoI-digested pGEX-6P1 (plasmid pRC58); source: E. coli Rosetta λDE3, purified (Glutathione Sepharose 4 FF)
T1 sequence (looked up): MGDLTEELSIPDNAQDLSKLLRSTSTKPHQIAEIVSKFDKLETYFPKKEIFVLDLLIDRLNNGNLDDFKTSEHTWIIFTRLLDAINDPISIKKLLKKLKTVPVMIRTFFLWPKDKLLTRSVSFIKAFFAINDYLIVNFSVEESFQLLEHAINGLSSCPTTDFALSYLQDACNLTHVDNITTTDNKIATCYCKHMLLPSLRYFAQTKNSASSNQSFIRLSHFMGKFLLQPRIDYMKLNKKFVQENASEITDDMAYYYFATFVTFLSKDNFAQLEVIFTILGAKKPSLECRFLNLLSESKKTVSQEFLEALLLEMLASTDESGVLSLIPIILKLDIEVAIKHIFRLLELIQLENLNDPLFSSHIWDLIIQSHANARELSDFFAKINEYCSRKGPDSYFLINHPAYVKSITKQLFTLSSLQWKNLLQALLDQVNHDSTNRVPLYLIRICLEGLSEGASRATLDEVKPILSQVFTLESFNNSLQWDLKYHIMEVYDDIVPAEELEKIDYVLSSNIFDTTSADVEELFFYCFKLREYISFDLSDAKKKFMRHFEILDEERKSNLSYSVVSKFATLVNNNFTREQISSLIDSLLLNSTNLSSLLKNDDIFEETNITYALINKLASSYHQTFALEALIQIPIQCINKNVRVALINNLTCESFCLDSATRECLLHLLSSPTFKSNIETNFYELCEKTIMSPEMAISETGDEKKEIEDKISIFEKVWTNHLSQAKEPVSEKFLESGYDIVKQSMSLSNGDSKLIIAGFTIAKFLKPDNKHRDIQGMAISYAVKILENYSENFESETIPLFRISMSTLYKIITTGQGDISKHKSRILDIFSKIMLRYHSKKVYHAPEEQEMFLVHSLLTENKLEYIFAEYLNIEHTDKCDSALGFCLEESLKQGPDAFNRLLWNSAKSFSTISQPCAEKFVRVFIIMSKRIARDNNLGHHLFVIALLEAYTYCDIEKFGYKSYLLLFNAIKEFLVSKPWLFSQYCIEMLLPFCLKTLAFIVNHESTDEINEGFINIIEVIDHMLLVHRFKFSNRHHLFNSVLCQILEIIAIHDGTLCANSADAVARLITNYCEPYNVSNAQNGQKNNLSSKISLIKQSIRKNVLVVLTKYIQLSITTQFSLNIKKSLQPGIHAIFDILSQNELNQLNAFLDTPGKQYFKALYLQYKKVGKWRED

GST-Npa1p = target: T2, GST-Npa1p (S. cerevisiae, UniProt P34241 1-1764); assay: as above; conditions: both partners purified
T2 construct: Npa1p, S. cerevisiae; NPA1 ORF inserted into XhoI-digested pGEX-6P1 (plasmid pRC59); source: E. coli Rosetta λDE3, purified (Glutathione Sepharose 4 FF)
T2 sequence (P34241 whole entry): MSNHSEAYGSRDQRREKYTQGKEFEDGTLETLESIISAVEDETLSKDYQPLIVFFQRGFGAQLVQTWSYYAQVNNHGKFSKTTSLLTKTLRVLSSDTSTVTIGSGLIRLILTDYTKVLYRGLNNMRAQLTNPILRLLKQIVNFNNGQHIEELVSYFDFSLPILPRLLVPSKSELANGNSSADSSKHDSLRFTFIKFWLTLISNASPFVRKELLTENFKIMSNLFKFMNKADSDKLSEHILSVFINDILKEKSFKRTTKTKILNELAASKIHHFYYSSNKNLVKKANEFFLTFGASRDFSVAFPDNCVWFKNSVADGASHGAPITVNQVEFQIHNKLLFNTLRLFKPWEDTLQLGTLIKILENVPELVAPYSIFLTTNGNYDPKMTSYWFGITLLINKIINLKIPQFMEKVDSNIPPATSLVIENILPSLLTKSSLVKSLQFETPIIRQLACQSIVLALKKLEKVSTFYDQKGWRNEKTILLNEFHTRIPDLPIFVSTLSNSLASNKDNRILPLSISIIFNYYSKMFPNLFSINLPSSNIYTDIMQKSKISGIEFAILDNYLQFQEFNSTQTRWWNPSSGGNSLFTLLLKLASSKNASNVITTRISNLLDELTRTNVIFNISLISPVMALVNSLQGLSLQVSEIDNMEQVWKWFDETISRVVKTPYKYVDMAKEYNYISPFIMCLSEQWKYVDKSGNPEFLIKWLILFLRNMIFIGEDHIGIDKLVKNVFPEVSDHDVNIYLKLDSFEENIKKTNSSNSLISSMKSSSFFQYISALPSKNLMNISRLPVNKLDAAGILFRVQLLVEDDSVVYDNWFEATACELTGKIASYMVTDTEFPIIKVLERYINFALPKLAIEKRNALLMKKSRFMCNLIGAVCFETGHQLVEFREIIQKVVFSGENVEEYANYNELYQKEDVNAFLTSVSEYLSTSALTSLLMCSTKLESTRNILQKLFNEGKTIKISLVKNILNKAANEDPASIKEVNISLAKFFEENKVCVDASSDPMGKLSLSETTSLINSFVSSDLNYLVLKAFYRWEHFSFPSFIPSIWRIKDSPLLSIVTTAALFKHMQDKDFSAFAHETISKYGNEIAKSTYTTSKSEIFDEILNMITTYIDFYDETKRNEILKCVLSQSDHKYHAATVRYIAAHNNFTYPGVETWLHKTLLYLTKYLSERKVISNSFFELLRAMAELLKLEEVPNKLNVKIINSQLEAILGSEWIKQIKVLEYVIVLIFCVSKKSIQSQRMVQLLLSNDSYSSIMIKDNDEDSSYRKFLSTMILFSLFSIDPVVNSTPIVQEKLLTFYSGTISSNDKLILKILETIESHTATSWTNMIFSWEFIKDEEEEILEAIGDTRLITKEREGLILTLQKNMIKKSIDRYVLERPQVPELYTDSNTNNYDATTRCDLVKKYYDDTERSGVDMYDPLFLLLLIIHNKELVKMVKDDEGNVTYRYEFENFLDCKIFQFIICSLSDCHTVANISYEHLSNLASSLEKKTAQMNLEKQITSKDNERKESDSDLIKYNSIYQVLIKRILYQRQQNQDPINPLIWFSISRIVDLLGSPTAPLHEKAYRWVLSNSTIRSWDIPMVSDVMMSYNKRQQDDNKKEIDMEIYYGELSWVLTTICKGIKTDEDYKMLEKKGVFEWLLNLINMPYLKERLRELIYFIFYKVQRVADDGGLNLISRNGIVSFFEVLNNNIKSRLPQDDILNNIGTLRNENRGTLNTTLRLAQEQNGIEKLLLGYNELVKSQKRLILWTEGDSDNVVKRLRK

binding result (GST-Npa2p): binds | binding result (GST-Npa1p): binds
B1: His-Dbp6p (natural protein, S. cerevisiae, UniProt P53734 1-629, looked up)
chain: MFASRFDPSQLTAPAASAPEGIVGTTPPAIVPLKRQATESDNEEYGSHQDSDESSNSSSEEDEDRMQVDYGASEEDSSEVEEEESKPSTHSTVLSRFKQTVSLQERLGASDIAESKEDEGIEDEAASTHQLKQIPQPEFVKNPMNLNTNSLQFKSTGWLNTEKIYYDNSLIKPFSDYANELEAKLLQNICKNFSTNTFPIQSIILDSILPVLNFTLNVSKRNFTRRIGDILVNAATGSGKTLAYSIPIVQTLFKRQINRLRCIIIVPTKLLINQVYTTLTKLTQGTSLIVSIAKLENSLKDEHKKLSNLEPDILITTPGRLVDHLNMKSINLKNLKFLIIDEADRLLNQSFQGWCPKLMSHLKTDKLDTLPGNVIKMIFSATLTTNTEKLNGLNLYKPKLFLKQTDKLYQLPNKLNEFNINIPTAKSVYKPLILLYSICQFMAHSPIAAKILIFVKSNESSIRLSKLLQLICESRSQSSVLKNLQNLAVSINSVNSNNSKAENKKIVANFSHHSESAGITILITTDIMSRGIDINDITQVINYDPPMSSQQYVHRVGRTARANELGSAYNLLVGRGERTFFDDLNKDLDRDGKSVQPLELDFTLLESDSELYTSSLESLKNYHNNTAQA
notes: Dbp6p, S. cerevisiae; DBP6 ORF cloned into a modified pET-15b (plasmid pET-DBP6); also called His-tagged Dbp6p; source: E. coli Rosetta λDE3, purified (HisTrap FF, Superdex 200)
